Experimental data reported in US20190248864A1.
Blank lines part the entries; values can stand above or below the molecule they belong to.

Tests used:
[1] = target: each construct (cells transfected with either wild type or the PCSK9 binding-deficient LDLR mRNAs); assay: flow cytometry, half-maximal cell association of BODIPY-LDL on transfected HEK293 cells
[2] = target: wild type mouse LDLR (mouse) (UniProt P35951); assay: cell-based or functional assay
[3] = target: mouse LDLR mutant 1 (LDLR_N317A, K832R, C841A) (mouse) (UniProt P35951); assay: cell-based or functional assay

EC50 [1]: 0.6 to 0.7 ng/mL
Molecule: BODIPY-labeled LDL (low density lipoprotein) (from UniProt P04114 28-4563) (ligand)

Average LDLR MCF, HeLa cells, co-transfected with IDOL (with Luciferase: 5773) [2]: 2920 MCF | Average LDLR MCF, Hepa1-6, co-transfected with IDOL (with Luciferase: 5272) [2]: 881 MCF | LDLR expression as percent of the baseline, HeLa cells (% of the baseline) [2]: 50.5 | LDLR expression as percent of the baseline, Hepa1-6 (% of the baseline) [2]: 16.7 | LDLR expression as percent of the baseline, Hepa1-6 cells given no LDLR mRNA (luciferase row of Table 15) (% of the baseline) [2]: 62.3 | Average LDLR MCF, HeLa cells, co-transfected with IDOL (with Luciferase: 8369) [3]: 7050 MCF | Average LDLR MCF, Hepa1-6, co-transfected with IDOL (with Luciferase: 14080) [3]: 8860 MCF | LDLR expression as percent of the baseline, HeLa cells (% of the baseline) [3]: 84.2 | LDLR expression as percent of the baseline, Hepa1-6 (% of the baseline) [3]: 62.9
B1: mouse IDOL (inducible degrader of the LDLR) (enzyme, UniProt Q8BM54 1-445, looked up)
chain: MLCYVTRPDAVLMEVEVEAKANGEDCLNQVCRRLGIIEVDYFGLQFTGSKGESLWLNLRNRISQQMDGLAPYRLKLRVKFFVEPHLILQEQTRHIFFLHIKESLLAGHLQCSPEQAVELSALLAQTKFGDYNQNTAQYSYEDLCEKELSSSTLNSIVAKHKELEGISQASAEYQVLQIVSAMENYGIEWHAVRDSEGQKLLIGVGPEGISICKEDFSPINRIAYPVVQMATQSGKNVYLTVTKESGNSIVLLFKMISTRAASGLYRAITETHAFYRCDTVTSAVMMQYSRDLKGHLASLFLNENINLGKKYVFDIKRTSKEVYDHARRALYNAGVVDLVSRSDQSPPSSPLKSSDSSMSCSSCEGLSCQQTRVLQEKLRKLKEAMLCMACCEEEINSTFCPCGHTVCCESCAAQLQSCPVCRSRVEHVQHVYLPTHTSLLNLTVI
